From PMC8304084, “A Concerted Action of UBA5 C-Terminal Unstructured Regions Is Important for Transfer of Activated UFM1 to UFC1” (International Journal of Molecular Sciences, 2021)

Experiments:
[1] = target: T1, GABARAP (Homo sapiens, UniProt O95166); experiment: ITC, UBA5 peptides vs GABARAP; type: binding; conditions: 25 °C
T1 construct: modified ubiquitin tag (Ub19) with TEV site (N, cleaved yes); made in house; host or cells: E. coli T7 Express
Excerpt: (§1) To understand how the UBA5 C-terminus participates in the ufmylation cascade, we performed isothermal titration calorimetry (ITC) experiments, in which we titrated UBA5 C-terminal peptides (see Table 1) to the UBA5 AD, UFC1, UFM1 and representative LC3/GABARAP proteins (Figure 2A, Supplementary Figure S2A–D and Table 2).
(§2) All proteins and peptides were expressed in E.Coli T7 Express (New England Biolabs GmbH, Frankfurt, Germany) cells in LB or M9 (to obtain ^15N- and ^13C,^15N-labeled polypeptides) media according to the protocol described in [33, 36]. For protein purification, bacterial cell pellets were resuspended in lysis buffer (50 mM Tris-HCl pH = 7.5, 100 mM NaCl, 5% glycerol, 5 mM PIC (protease inhibitor cocktail)) and lysed via sonication (TT13 Sonotrode, 40% amplitude, for 6 × 1 min with a 0.5/0.5-s pulse). Lysates were centrifuged for 45 min at 17,000× g at 4 °C. Supernatants were loaded onto a His Trap Fast Flow 5 mL column (GE Healthcare, München, Germany) equilibrated in loading buffer (50 mM Tris-HCl pH = 8.0, 250 mM NaCl, 1% glycerol, 20 mM imidazole). The column was washed with loading buffer for 5–10 CV and protein was eluted with elution buffer (50 mM Tris-HCl pH = 8, 250 mM NaCl, 1% glycerol, 400 mM imidazole). Simultaneous TEV cleavage (1 mg TEV protease was added to 100 mg peptides/proteins) and buffer exchange to loading buffer via dialysis was performed over night at 4 °C. After reverse IMAC, proteins were concentrated with conical concentrators (Millipore Merck, Darmstadt, Germany) and loaded on a Superdex 10/60 75 or 200 column (GE Healthcare, München, Germany) for further purification and equilibration with ITC/NMR buffer (25 mM HEPES pH = 7.5, 100 mM NaCl). […] The protein and peptide concentrations were calculated from the UV absorption at 280 nm by Nanodrop spectrophotometer (Thermo Scientific, Langenselbold, Germany).
(§3) All ITC experiments were performed at 25 °C using a VP-ITC microcalorimeter (Malvern Panalytical Ltd., Malvern, UK). […] The ITC data were analyzed based on a “one-site” binding model with MicroCal ITC software implemented in Origin 7.0.

[2] = target: T2, LC3A (Homo sapiens, UniProt Q9H492); experiment: ITC, UBA5 peptides vs LC3A; type: binding; conditions: 25 °C
T2 construct: LC3A, residues 4–120; ubiquitin tag Ub3 (vector pETm60_Ub3) (cleaved yes); made in house; host or cells: E. coli T7 Express
Excerpt: as §1, §2, §3

[3] = target: T3, UFM1 (Homo sapiens, UniProt P61960); experiment: ITC, UBA5 peptides vs UFM1; type: binding; conditions: 25 °C
T3 construct: Full length UFM1, residues 2–83; modified ubiquitin tag (Ub19) with TEV site (N, cleaved yes); made in house; host or cells: E. coli T7 Express
Excerpt: as §1
All proteins and peptides were expressed in E.Coli T7 Express (New England Biolabs GmbH, Frankfurt, Germany) cells in LB or M9 (to obtain ^15N- and ^13C,^15N-labeled polypeptides) media according to the protocol described in [33, 36]. For protein purification, bacterial cell pellets were resuspended in lysis buffer (50 mM Tris-HCl pH = 7.5, 100 mM NaCl, 5% glycerol, 5 mM PIC (protease inhibitor cocktail)) and lysed via sonication (TT13 Sonotrode, 40% amplitude, for 6 × 1 min with a 0.5/0.5-s pulse). Lysates were centrifuged for 45 min at 17,000× g at 4 °C. Supernatants were loaded onto a His Trap Fast Flow 5 mL column (GE Healthcare, München, Germany) equilibrated in loading buffer (50 mM Tris-HCl pH = 8.0, 250 mM NaCl, 1% glycerol, 20 mM imidazole). The column was washed with loading buffer for 5–10 CV and protein was eluted with elution buffer (50 mM Tris-HCl pH = 8, 250 mM NaCl, 1% glycerol, 400 mM imidazole). Simultaneous TEV cleavage (1 mg TEV protease was added to 100 mg peptides/proteins) and buffer exchange to loading buffer via dialysis was performed over night at 4 °C. After reverse IMAC, proteins were concentrated with conical concentrators (Millipore Merck, Darmstadt, Germany) and loaded on a Superdex 10/60 75 or 200 column (GE Healthcare, München, Germany) for further purification and equilibration with ITC/NMR buffer (25 mM HEPES pH = 7.5, 100 mM NaCl). For structural NMR spectroscopy, buffer containing 50 mM Tris-HCl pH = 7.5, 100 mM NaCl was used. Prior to NMR experiments, TCEP and protease inhibitors cocktail were added to the samples to final concentrations 1 and 5 mM, respectively. Purified peptides and protein were concentrated and stored at −80 °C. The protein and peptide concentrations were calculated from the UV absorption at 280 nm by Nanodrop spectrophotometer (Thermo Scientific, Langenselbold, Germany).
(§4) All ITC experiments were performed at 25 °C using a VP-ITC microcalorimeter (Malvern Panalytical Ltd., Malvern, UK). Peptides in concentration of ~400 µM were titrated into 20–25 µM solutions of corresponding binding partner at a stirring speed of 307 rpm. The raw data were corrected on the dilution heat of peptides obtained in independent experiment (titration of the peptide in syringe into the ITC/NMR buffer in the measuring cell). Pre-titration delay was set to 180 s, interval between titration steps was experimentally adjusted to avoid kinetic contribution to the observed heat effects and set to 200 s. A single ITC profile was collected for each type of interaction. The ITC data were analyzed based on a “one-site” binding model with MicroCal ITC software implemented in Origin 7.0.

[4] = target: T4, UFC1 (Homo sapiens, UniProt Q9Y3C8); experiment: In vitro thioester formation (ufmylation) assay, UFC1~UFM1 conjugate; type: biochemical; conditions: 1 mM ATP, 22 °C; peptides added to UBA5 AD^1–330 where applicable
T4 construct: Full length UFC1, residues 1–167; modified ubiquitin tag (Ub19) with TEV site (N, cleaved yes); made in house; host or cells: E. coli T7 Express
T4 sequence (Q9Y3C8 1-167): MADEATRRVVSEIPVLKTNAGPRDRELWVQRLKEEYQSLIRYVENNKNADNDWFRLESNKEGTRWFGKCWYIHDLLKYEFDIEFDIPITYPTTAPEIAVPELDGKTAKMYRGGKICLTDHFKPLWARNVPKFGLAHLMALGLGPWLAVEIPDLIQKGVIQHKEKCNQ
Procedure: First, we analyzed the effect of the UBA5 C-terminus on UFM1 transfer to UFC1 with an in vitro thioester formation assay (Figure 1B–E).
Ufmylation reaction assays were adopted from work of Xie. Briefly, 70 µM UFM1, 20 µM UFC1 and 20 µM of different UBA5 constructs were mixed in reaction buffer (50 mM HEPES pH = 7.5, 100 mM NaCl, 5 mM MgCl2). After starting the reaction with addition of 1 mM ATP, the reaction mix was incubated at 22 °C for the desired time. To quench the reaction and prepare electrophoretic samples, 1 µL of the reaction mix was added to 99 µL 1x non-reducing SDS loading buffer and frozen in liquid nitrogen. Sample content was visualized by sodium dodecyl sulfate polyacrylamide gel electrophoresis (SDS-PAGE). The transfer to polyvinylidene difluoride (PVDF) membrane was performed via a Trans-Blot® Turbo™ Transfer System (Bio-Rad, München, Germany). After transfer the membrane was blocked with TBST (Tris-buffered saline with Tween20 buffer, 20 mM Tris, 150 mM NaCl and 0.1% TWEEN 20) containing 5% w/v nonfat dry milk for 1 h, followed by α-UFC1 antibody incubation over night at 4 °C (ab189251 abcam, 1:10,000 in TBST containing 5% w/v nonfat dry milk). After washing with TBST the membrane was incubated with secondary antibody (anti-rabbit-HRP) for 1 h at RT and again washed with TBST. Detection was performed by addition of ECL solution. For quantification of UFC1 ufmylation coloc2 software implemented in ImageJ was used.

[5] = tested on: Ub; experiment: Interaction of ubiquitin with UBA5 C-terminal region; type: binding
Procedure: as §4

T2 sequence (Q9H492 4-120): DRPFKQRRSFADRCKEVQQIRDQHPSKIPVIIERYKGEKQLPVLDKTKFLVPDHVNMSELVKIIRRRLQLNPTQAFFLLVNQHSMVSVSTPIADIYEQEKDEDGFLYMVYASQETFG
T1 sequence (O95166 3-116): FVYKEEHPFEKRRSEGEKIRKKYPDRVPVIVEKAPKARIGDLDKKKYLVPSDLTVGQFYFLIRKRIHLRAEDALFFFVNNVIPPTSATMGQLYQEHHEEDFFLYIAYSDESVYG
T3 sequence (P61960 2-83): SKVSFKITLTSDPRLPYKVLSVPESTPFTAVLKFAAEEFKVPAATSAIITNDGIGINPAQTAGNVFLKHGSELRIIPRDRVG

## R1-R2-R3^325–404: UBA5 C-terminal part, residues 325–404 (recombinant, E. coli)
[1]
  ΔG: -8.15 kcal/mol
  ΔS: 24.2 cal mol^−1 K^−1
  −T*ΔS: -7.22 kcal/mol
[2]
  ΔG: -7.38 kcal/mol
  −T*ΔS: -3.13 kcal/mol
[2]; value is KA × 10^−6, ± = fitting error
  KA*10^−6: 0.26 ± 0.03 M^−1
[3]; compared with isolated R1^325−357 peptide (ref 31)
  affinity change, UFM1: does not change significantly
[3]; vs UFM1
  ΔG: -7.15 kcal/mol
  −T*ΔS: -1.31 kcal/mol
[3]; vs UFM1, one-site model, single profile
  ΔS: 4.41 cal mol^−1 K^−1
[3]; vs UFM1, value is KA × 10^−6, ± = fitting error
  KA*10^−6: 0.17 ± 0.02 M^−1
[4]
  effect on UFC1~UFM1 conjugation (in words): gets rescued
[5]
  interaction with ubiquitin: no interaction
